The data set concerns the target IL-6 (human) (UniProt P05231). The settings on record: 32 nt; six 2'-O-methyl; eight Bn-dU; one Pe-dU; one Nap-dU (position 12); Bn-dU at 7, 8, 14, 15, 22, 23, 27, 30 named in text; binding assay method and buffer not given in the ….

IL-6 (human), sequence (P05231 30-212): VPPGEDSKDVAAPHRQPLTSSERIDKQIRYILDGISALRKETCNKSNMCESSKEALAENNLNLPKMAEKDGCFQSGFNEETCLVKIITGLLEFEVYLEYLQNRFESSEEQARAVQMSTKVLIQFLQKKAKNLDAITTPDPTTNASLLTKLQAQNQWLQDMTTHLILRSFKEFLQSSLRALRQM

Usually Kd stands for a measure of binding affinity in units of concentration. In turn, “GGCAGGUUUGGUAUUAACACGUUAAGUCGUGG [SL1025]” showed a Kd of 0.2 nM.

Source of the values: PMC3961693.
